Source: patent publication US9333268B2, “Methods of treatment with arginine deiminase” (Polaris Group, priority 2012, dated 2016)

Columns and labels:
[1] = tested on: human pancreatic cancer cell line MIA-PaCa2; experiment: Cell death by PI-FACS (sub-G1 DNA content) and Annexin V-PI flow cytometry; type: cell-based
Experimental: (§1) The human pancreatic cancer cell line MIA-PaCa2 was treated in vitro and in vivo with pegylated arginine deiminase (ADI-PEG) alone or in the presence of ChQ. Cell death was measured by propidium iodide (PI)-FACS to determine sub-G1 DNA content, and apoptosis was evaluated by Annexin V-PI flow cytometry. Cleavage of caspase 3 was evaluated by western blots and ELISA. Autophagy was measured by evaluating the expression levels of LC3 and […] p62 (p62) by western blots and ELISA.
(§2) In order to determine if ADI induces apoptosis and autophagy in a caspase dependent manner, cells were incubated with either ADI-PEG or a combination of ADI-PEG and ZVAD-fmk, a pan-caspase inhibitor.
(§3) The levels of p62, LC3B-I, and LC3B-II were measured by western blot analysis in order to examine autophagic flux.
In order to examine whether ChQ alters the amount of apoptotic or non-apoptotic cell death when used in combination with ADI, cells were incubated with ADI-PEG alone or a combination of ADI-PEG and ChQ.

[2] = tested on: human pancreatic cancer cell line MIA-PaCa2; experiment: Western blot/ELISA of caspase 3 cleavage, LC3 and p62; type: cell-based; conditions: 72 hours
Experimental: as §1, §2, §3

B1: ADI-PEG: ADI covalently modified with PEG (with or without a linking group) (protein, listed as Mycoplasma hominis)
chain: MSVFDSKFNGIHVYSEIGELETVLVHEPGREIDYITPARLDELLFSAILESHDARKEHQSFVKIMKDRGINVVELTDLVAETYDLASKAAKEEFIETFLEETVPVLTEANKEAVRAFLLSKPTHEMVEFMMSGITKYELGVESENELIVDPMPNLYFTRDPFASVGNGVTIHFMRYIVRRRETLFARFVFRNHPKLVKTPWYYDPAMKMSIEGGDVFIYNNETLVVGVSERTDLDTITLLAKNIKANKEVEFKRIVAINVPKWTNLMHLDTWLTMLDKNKFLYSPIANDVFKFWDYDLVNGGAEPQPQLNGLPLDKLLASIINKEPVLIPIGGAGATEMEIARETNFDGTNYLAIKPGLVIGYDRNEKTNAALKAAGITVLPFHGNQLSLGMGNARCMSMPLSRKDVKW
modifications: PEGylated
[1]; 0.3 μg/mL, 72 hours, vs PBS
  Annexin V depolarization: induced Annexin V depolarization
[1]; ADI-PEG alone
  number of cells in sub-G0/G1: increased the number of cells in sub-G0/G1
[2]; dose dependent
  LC3B conjugation with PE: LC3B conjugation with PE
  caspase cleavage: induces caspase cleavage
[2]; ADI-PEG 0.3 μg/mL, western blot
  apoptosis as measured by caspase 3 cleavage: induction of apoptosis
